B1: MIG-m034 (mixed)
mixed: AAAAACGCUGAAGAGAAGACGGAAGGAGACGAAGCGT
modifications: RNA with 5'-dA5 (1-5), LNA at C6 G7 C35 G36, 3'-dT37
B2: MIG-m042 (mixed)
mixed: B1 mixed
modifications: RNA with 5'-dA5 (1-5), LNA at C6 G7 C35 G36, 2'-OMe U9, 3'-dT37
B3: MIG-m035 (mixed)
mixed: AAAAAGCUGAAGAGAAGACGGAAGGAGACGAAGCT
modifications: RNA with 5'-dA5 (1-5), LNA at G6 C7 G33 C34, 3'-dT35
B4: MIG-m036 (mixed)
RNA: AAAAAGCGCUGAAGAGAAGACGGAAGGAGACGAAGCGC
modifications: RNA with 5'-dA5 (1-5), DNA at G6 C7 G37 C38
B5: MIG-m041 (mixed)
RNA: B4 RNA
modifications: RNA with 5'-dA5 (1-5), DNA at 6-9 and 35-38, 2'-OMe U10
B6: MIG-m040 (mixed)
RNA: B4 RNA
modifications: RNA with 5'-dA5 (1-5), 2'-OMe U10
B7: MIG-m037 (mixed)
RNA: B4 RNA
modifications: RNA with 5'-dA5 (1-5), DNA at 6-9 and 35-38

Experiments:
Conditions in all cases: chain copies: 2 heavy + 2 light chains (inferred); label: 5'-biotin; stem-loop (predicted)
[1] = target: T1, mouse IgG2a (subtype 2a IgG antibody) (Mus musculus, UniProt P01863 P01863:1-330); assay: SPR; second measurement (Example 3)
Description: (§1) The analysis of binding was performed using BIACORE 3000 (produced by GE Healthcare) according to its instruction manual. Further, from the signal intensity (RU: Resonance Unit) measured using the BIACORE, the analysis was performed with 1:1 Langmuir binding model using BIAevaluation software, and the dissociation constant between each of the aptamers and each of the mouse IgG antibodies was obtained. The conditions, method, and the like of the measurement using the BIACORE were according to the following documents.
(§2) The experiment was performed in the same manner as in Example 2 except that MIG-m034, MIG-m035, MIG-m036, MIG-m037, and MIG-m040 were used as aptamers. FIGS. 8 to 10 are graphs showing the change in the signal intensity over time and respectively show the result obtained using the subtype 1 mouse IgG, the result obtained using the subtype 2a mouse IgG, and the result obtained using the subtype 3 mouse IgG. […] The results summarized in Table 3 tell that these aptamers each have high general versatility as a secondary antibody reagent and are good in the binding force. Further, since it was considered that the base pair in the stem region and U adjacent thereto are not involved in the binding of mouse IgG from Example 1, a clone having a systematic modified base was produced to obtain the Kd value. […]

[2] = target: T2, mouse IgG3 (subtype 3 IgG antibody) (Mus musculus, UniProt P03987-2 P03987-2:1-329); assay: SPR; second measurement (Example 3)
Description: as §1, §2

[3] = target: T1, mouse IgG2a (subtype 2a IgG antibody); assay: SPR; BIACORE 3000, 1:1 Langmuir
Description: as §1
(§3) FIGS. 5 to 7 are graphs showing the change in the signal intensity over time. […] Further, in each of the graphs, the vertical axis indicates the signal intensity (RU) measured using the BIACORE and the horizontal axis indicates the analysis time (sec). In the horizontal axis, "100 seconds" is the time when the injection of a target to be analyzed to a flow cell at the flow rate of 20 μL/min is started. The injection was maintained for 2 minutes (120 seconds), and then a running buffer was sent for 3 minutes (180 seconds) to obtain the sensorgrams showing the interaction between the aptamers and IgG. The global fitting analysis was performed and the sensorgrams were obtained under different target concentration conditions for obtaining correct Kd values.

[4] = target: T2, mouse IgG3 (subtype 3 IgG antibody); assay: SPR; BIACORE 3000, 1:1 Langmuir
Description: as §1, §3

[5] = target: T1, mouse IgG2a (subtype 2a IgG antibody); assay: SPR; BIACORE 3000, 1:1 Langmuir; remark: listed apart in the source
Description: as §1
(§4) The experiment was performed in the same manner as in Example 2 except that MIG-m034, MIG-m035, MIG-m036, MIG-m037, and MIG-m040 were used as aptamers. FIGS. 8 to 10 are graphs showing the change in the signal intensity over time and respectively show the result obtained using the subtype 1 mouse IgG, the result obtained using the subtype 2a mouse IgG, and the result obtained using the subtype 3 mouse IgG. […] The results summarized in Table 3 tell that these aptamers each have high general versatility as a secondary antibody reagent and are good in the binding force. Further, since it was considered that the base pair in the stem region and U adjacent thereto are not involved in the binding of mouse IgG from Example 1, a clone having a systematic modified base was produced to obtain the Kd value. Since all the clones have substantially the same binding force to each of the mouse antibody subtypes, it was considered that the stem region was not involved in the binding with respect to all the subtypes and also that all the aptamers have the same binding mode to each of the subtypes.

[6] = target: T2, mouse IgG3 (subtype 3 IgG antibody); assay: SPR; BIACORE 3000, 1:1 Langmuir; remark: listed apart in the source
Description: as §1, §4

T1 sequence (P01863 whole entry, one chain of several): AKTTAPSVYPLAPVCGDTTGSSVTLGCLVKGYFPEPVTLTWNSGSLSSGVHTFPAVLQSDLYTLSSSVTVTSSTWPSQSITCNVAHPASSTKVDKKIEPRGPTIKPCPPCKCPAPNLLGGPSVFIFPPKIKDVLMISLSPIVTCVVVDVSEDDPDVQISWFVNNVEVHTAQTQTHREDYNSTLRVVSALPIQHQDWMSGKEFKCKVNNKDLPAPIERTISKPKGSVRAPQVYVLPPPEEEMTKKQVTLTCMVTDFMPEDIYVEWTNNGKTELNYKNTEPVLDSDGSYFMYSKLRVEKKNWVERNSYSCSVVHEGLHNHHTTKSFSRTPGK
T2 sequence (P03987 other isoform, or with tags, fused parts or gaps): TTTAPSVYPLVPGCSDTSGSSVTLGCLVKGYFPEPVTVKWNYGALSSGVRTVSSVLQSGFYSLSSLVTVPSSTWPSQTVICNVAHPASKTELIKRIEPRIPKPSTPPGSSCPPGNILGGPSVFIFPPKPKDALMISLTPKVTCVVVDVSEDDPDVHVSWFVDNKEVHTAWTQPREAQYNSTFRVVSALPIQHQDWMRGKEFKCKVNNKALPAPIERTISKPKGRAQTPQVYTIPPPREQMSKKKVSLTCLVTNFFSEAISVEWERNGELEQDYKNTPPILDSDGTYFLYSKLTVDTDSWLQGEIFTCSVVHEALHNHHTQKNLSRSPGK

Binder	Kd [1]	Kd [2]	Kd [3]	Kd [4]	Kd [5]	Kd [6]
B1	1.09 nM	8.33 nM	0.995 nM	8.8 nM		
B2			0.436 nM	5.57 nM		
B3					1.92 nM	139 nM
B4					4.61 nM	13.8 nM
B5			0.959 nM	8.4 nM		
B6					1.23 nM	3.46 nM
B7					3.7 nM	9.85 nM

— US8852954, “Nucleic acid molecule having binding affinity to rodent-derived IgG antibody, binder, detection reagent, and detection kit” (NEC Solution Innovators, Ltd.)
